Experiments:
[1] = biological target: Claudin 18.1 on CHO cells (CHO+ Claudin 18.1) (UniProt P56856); assay: flow cytometry, unpurified culture supernatant on CHO_18.1 cells, anti-c-Myc 9E10 + Avidin-PE; parental CHO in the same table: 1.71 %
[2] = biological target: Claudin 18.1 on CHO cells (CHO+ Claudin 18.1) (UniProt P56856); assay: flow cytometry, unpurified culture supernatant on CHO_18.1 cells, anti-c-Myc 9E10 + Avidin-PE; parental CHO in the same table: 1.25 %

Sequence of Claudin 18.1 on CHO cells (CHO+ Claudin 18.1) (P56856 whole entry): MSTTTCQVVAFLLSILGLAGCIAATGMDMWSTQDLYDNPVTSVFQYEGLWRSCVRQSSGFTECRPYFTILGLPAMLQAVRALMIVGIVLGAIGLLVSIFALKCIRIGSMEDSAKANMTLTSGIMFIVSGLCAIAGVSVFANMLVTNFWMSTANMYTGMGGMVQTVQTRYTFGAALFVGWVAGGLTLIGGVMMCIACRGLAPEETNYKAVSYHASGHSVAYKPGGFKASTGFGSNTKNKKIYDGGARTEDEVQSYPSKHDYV

B1: Claudin 18.2-3C2 (VHH)
VHH: QVQLVESGGGLVQPGGSLRLSCAASGFTFSNYAMYWVRQAPGKGPEWVSVISGGGGVISYADSVKGRFTISRDNAKNTMYLQMNSLKPEDTAVYYCNAQSAVWWENDYWGQGTQVTVSS
PE-Positive Cells (%) [1]: 7.32%

B2: Claudin 18.2-4G1 (VHH)
VHH: QVQLVESGGGVVQTGGSLRLTCEISGAALSSYTMGWFRQAPGKEREFVAAISWGGSITWYADSVKGRFTISRDNAKNTVYLQMNSLKPEDTAVYYCHAEGQFGALSYPKDYWGQGTQVTVSS
PE-Positive Cells (%) [2]: 6.79%

From patent publication US20240109963A1
